Blank lines part the entries; values can stand above or below the molecule they belong to.
Legend:
EphB receptors = experiment: Peptide pull-down of endogenous EphB receptors from lysates; type: binding; settings: peptide on streptavidin beads; mouse brain or cultured cell lysates
Description: The ability of the peptides to bind in a stable manner, which is important for both targeting and competitive inhibition, was tested in pull-down experiments. For peptide pull-down experiments, cells in 60 cm plates at 70% confluency or adult mouse brain tissue were solubilized in pull-down buffer (50 mM HEPES pH 7.5, 150 mM NaCl, 10% glycerol, 1% Triton-X100, 5 mM KCl and 1 mM EDTA). Three μg of biotinylated peptide were incubated for 45-90 min with 5 μl streptavidin agarose beads (Sigma), unbound peptide was washed away, and the beads were incubated with the cell lysates for 45-90 min. Proteins bound to the beads were separated by SDS-polyacrylamide gel electrophoresis and probed by immunoblotting with EphB1, EphB2, or EphB4 antibodies. The EphB1 antibody (Santa Cruz) was detected with a secondary anti-goat IgG peroxidase-conjugated antibody (BioRad Laboratories). The EphB2 and EphB4 antibodies were affinity-purified polyclonal antibodies to GST fusion proteins containing approximately 100 amino acids from the carboxy-terminal tails of the EphB2 or EphB4 receptors (Noren, N. K. et al. 2004 PNAS USA 101:5583-5588; Holash, J. A. & Pasquale, E. B. 1995 Devel Biol 172:683-693) and were detected with a secondary anti-rabbit IgG peroxidase-conjugated antibody (Amersham Biosciences). […]

COS cells = settings: 400 μM peptide; […] ephrin-B1 Fc
Description: Upon treatment with 1.5 μg/ml ephrin-B1 Fc, COS cells retract at the periphery, leaving behind spike-like protrusions. […] COS cells were plated onto glass coverslips and sixteen hours later were starved for three hours in DME with 0.5% fetal calf serum. The cells were then incubated for 20 min with 400 μM SNEW or control peptide in PBS, or an equal volume of PBS as a control, and then either left untreated or stimulated for 10 min with 1.5 μg/ml ephrinB1-Fc (R&D Systems, Inc.). […] Control peptide: RTVA.

EphB4 [1] = target: T1, EphB4 (Homo sapiens, UniProt P54760); experiment: Peptide pull-down of EphB4 from MCF7 or transfected 293T cells; type: binding
T1 construct: MCF-7 human breast cancer cells, which endogenously express EphB4; endogenous in cells; host or cells: MCF7
T1 sequence (P54760 16-987): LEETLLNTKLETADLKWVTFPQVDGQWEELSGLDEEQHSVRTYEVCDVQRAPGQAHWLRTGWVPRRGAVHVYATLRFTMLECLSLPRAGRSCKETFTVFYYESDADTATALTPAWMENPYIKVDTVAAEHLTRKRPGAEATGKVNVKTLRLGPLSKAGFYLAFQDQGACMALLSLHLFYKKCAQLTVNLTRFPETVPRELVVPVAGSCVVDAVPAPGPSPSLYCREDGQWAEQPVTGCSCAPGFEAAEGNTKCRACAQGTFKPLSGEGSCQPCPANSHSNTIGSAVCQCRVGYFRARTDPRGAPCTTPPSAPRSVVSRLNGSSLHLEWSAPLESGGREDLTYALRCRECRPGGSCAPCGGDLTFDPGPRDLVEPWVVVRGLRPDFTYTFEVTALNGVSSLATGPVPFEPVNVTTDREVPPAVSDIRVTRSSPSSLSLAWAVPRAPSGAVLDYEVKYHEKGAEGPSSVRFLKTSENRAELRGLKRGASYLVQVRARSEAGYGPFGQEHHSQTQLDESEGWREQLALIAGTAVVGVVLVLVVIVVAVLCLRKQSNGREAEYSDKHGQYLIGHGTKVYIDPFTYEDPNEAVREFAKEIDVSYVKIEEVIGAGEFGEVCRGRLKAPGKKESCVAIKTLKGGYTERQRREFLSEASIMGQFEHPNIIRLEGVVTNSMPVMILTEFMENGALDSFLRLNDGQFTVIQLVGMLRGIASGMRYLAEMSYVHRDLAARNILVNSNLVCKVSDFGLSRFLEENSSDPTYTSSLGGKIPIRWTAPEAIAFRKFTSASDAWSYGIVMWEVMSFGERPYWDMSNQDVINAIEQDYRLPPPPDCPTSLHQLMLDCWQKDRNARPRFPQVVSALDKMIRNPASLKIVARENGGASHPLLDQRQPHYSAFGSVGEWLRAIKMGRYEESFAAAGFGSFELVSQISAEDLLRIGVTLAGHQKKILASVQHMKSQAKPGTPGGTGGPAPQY
Description: The ability of the peptides to bind in a stable manner, which is important for both targeting and competitive inhibition, was tested in pull-down experiments. For peptide pull-down experiments, cells in 60 cm plates at 70% confluency or adult mouse brain tissue were solubilized in pull-down buffer (50 mM HEPES pH 7.5, 150 mM NaCl, 10% glycerol, 1% Triton-X100, 5 mM KCl and 1 mM EDTA). Three μg of biotinylated peptide were incubated for 45-90 min with 5 μl streptavidin agarose beads (Sigma), unbound peptide was washed away, and the beads were incubated with the cell lysates for 45-90 min. Proteins bound to the beads were separated by SDS-polyacrylamide gel electrophoresis and probed by immunoblotting with EphB1, EphB2, or EphB4 antibodies. The EphB1 antibody (Santa Cruz) was detected with a secondary anti-goat IgG peroxidase-conjugated antibody (BioRad Laboratories). The EphB2 and EphB4 antibodies were affinity-purified polyclonal antibodies to GST fusion proteins containing approximately 100 amino acids from the carboxy-terminal tails of the EphB2 or EphB4 receptors (Noren, N. K. et al. 2004 PNAS USA 101:5583-5588; Holash, J. A. & Pasquale, E. B. 1995 Devel Biol 172:683-693) and were detected with a secondary anti-rabbit IgG peroxidase-conjugated antibody (Amersham Biosciences).
Endogenous EphB receptors were isolated from lysates of mouse brain or cultured cells using the EWLS, SNEW, and TNYL peptides immobilized on streptavidin beads (FIGS. 5B, F, G and H). […] RTVA was used as a control peptide for the EphB4 pull downs. The NPVI peptide could isolate EphB4 from transfected cells but not endogenous EphB4 from MCF7 cells, which is present at lower levels (FIGS. 5B, F, G and H). […] EphB receptors were not detected bound to the beads coated with the other peptides.

EphB4 [2] = target: T2, EphB4 (Homo sapiens, UniProt P54760); experiment: Peptide competition of phage binding to EphB4 ectodomain; settings: concentration-dependent
T2 construct: panned on the ectodomains of EphB1, EphB2, or EphB4 fused to human Fc
T2 sequence (P54760 16-539 limits assumed): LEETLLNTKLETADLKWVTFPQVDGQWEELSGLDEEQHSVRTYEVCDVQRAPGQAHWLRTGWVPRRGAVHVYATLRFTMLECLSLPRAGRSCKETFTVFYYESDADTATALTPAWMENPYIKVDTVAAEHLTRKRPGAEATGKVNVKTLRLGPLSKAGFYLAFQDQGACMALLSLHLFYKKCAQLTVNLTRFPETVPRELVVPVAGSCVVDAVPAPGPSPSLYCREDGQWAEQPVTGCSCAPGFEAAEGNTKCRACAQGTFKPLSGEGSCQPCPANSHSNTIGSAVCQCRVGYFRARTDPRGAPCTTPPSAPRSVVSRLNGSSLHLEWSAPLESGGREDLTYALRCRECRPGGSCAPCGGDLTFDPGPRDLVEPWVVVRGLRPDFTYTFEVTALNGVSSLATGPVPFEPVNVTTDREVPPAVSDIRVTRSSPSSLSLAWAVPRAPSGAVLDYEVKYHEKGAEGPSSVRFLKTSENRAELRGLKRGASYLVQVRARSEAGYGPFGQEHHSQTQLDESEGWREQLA
Description: To measure peptide competition of phage binding to EphB receptors, Ni-NTA wells coated with Eph ectodomain Fc were incubated for 30 min at room temperature with various peptide concentrations in binding buffer (100 μl/well). Concentrated stocks of phage clones diluted between 1:500 and 1:10,000 in binding buffer were then added to the wells for a 1 hr at room temperature. Wells were washed and bound phage were detected using the anti-M13 antibody. A biotinylated control peptide with sequence unrelated to the sequences of the Eph-binding peptides ([…], SEQ ID NO: 40) was used as a negative control in some of the experiments, as indicated in the figure legends.
[…]. The SNEW peptide at 25 μM inhibited EphB2 binding of most phage clones isolated by panning on EphB2 (FIGS. 2E and G). The only exceptions were the IHWP, DHRWV and WHWT clones. However, binding of these clones was inhibited by 50 μM SNEW peptide, particularly when the phage concentration was halved. […] Bound phage were detected using anti-M13 phage antibody coupled to HRP and phage binding in the presence of peptide was normalized to phage binding in the absence of peptide. Error bars indicate standard deviation from duplicate measurements, and were calculated taking into account propagation of errors.

EphB2 = target: T3, EphB2 (Homo sapiens, UniProt P29323); settings: read-out: KD for monovalent EphB2-ephrin-B2 interaction; cited from earlier work
T3 sequence (P29323 19-1055): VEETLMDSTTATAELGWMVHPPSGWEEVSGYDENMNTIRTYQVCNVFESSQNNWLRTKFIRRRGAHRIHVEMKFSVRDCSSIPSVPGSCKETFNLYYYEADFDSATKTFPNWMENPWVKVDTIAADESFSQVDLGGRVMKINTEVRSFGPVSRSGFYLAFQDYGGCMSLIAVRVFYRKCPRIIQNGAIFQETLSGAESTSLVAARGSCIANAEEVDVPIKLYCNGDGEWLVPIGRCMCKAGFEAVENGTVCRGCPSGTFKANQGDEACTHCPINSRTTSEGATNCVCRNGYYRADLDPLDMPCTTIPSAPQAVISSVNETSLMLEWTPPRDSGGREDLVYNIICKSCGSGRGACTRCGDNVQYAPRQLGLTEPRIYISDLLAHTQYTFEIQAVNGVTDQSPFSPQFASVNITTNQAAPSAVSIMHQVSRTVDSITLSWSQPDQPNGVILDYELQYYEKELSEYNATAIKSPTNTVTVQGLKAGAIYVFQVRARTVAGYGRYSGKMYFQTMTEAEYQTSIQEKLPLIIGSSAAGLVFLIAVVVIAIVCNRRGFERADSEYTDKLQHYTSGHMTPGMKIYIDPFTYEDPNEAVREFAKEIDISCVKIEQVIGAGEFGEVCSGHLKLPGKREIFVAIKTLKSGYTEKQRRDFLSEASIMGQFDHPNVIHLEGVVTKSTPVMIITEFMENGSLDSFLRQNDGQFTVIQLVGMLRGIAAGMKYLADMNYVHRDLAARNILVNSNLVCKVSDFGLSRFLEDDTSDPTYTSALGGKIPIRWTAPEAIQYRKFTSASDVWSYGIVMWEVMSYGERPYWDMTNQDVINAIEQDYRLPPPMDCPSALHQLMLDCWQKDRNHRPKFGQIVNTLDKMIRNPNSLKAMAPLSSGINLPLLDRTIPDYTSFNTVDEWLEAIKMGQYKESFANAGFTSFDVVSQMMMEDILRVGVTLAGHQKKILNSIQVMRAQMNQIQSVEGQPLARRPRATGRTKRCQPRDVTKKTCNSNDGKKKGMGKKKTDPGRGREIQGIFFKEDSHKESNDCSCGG

EphA3 = target: T4, EphA3 (Homo sapiens, UniProt P29320); settings: read-out: KD for monovalent EphA3-ephrin-A5 interaction; cited from earlier work
T4 sequence (P29320 21-983): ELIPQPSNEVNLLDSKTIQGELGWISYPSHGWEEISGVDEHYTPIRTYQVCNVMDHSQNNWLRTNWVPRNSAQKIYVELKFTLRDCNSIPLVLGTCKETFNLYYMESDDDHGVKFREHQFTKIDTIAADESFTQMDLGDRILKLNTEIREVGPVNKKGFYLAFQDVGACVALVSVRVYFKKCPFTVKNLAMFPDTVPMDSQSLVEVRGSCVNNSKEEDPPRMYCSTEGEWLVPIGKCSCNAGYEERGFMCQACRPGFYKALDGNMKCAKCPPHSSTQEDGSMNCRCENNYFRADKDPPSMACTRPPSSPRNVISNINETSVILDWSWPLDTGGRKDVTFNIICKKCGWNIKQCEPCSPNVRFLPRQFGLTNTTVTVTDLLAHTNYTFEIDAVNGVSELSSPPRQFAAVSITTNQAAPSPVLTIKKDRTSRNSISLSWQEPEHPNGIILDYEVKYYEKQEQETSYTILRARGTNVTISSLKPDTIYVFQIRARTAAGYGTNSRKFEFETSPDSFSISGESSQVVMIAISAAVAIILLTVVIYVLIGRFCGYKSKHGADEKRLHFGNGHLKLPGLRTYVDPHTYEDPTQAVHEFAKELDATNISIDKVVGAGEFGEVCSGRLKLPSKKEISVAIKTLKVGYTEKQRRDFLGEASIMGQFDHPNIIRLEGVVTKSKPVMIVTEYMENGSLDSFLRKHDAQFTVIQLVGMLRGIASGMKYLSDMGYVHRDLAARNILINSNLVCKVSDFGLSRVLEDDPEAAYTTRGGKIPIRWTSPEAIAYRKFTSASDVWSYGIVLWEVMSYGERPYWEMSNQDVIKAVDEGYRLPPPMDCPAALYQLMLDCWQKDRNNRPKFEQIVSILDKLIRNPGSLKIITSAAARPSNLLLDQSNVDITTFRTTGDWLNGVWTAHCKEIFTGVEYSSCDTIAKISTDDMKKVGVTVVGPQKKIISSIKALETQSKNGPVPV

Molecule: CC[C@H](C)[C@H](NC(=O)[C@H](Cc1c[nH]c2ccccc12)NC(=O)[C@H](CCC(=O)O)NC(=O)[C@H](CC(N)=O)NC(=O)[C@@H](N)CO)C(=O)N[C@@H](CCC(N)=O)C(=O)N1CCC[C@H]1C(=O)N[C@@H](CCCNC(=N)N)C(=O)N[C@@H](CC(C)C)C(=O)N1CCC[C@H]1C(=O)N[C@@H](CCC(N)=O)C(=O)N[C@@H](Cc1c[nH]cn1)C(=O)O [SEQ ID NO 18]
Stable binding of EphB receptors in pull-down (EphB receptors): stably bind EphB receptors | Inhibition of COS cell retraction phenotype (COS cells): inhibited the COS cell retraction phenotype

Pull-down of EphB4, peptides used alone or together (EphB4 [1]): ineffective | Inhibition of DALN phage binding to immobilized EphB4 ectodomain (EphB4 [2]): inhibited binding of DALN phage
Molecule: SEQ ID NO 20: 12-mer from EphB4 panning; printed DAL[image]D[image]L[image]FRPW (DALNDWLLFRPW)

B1: ephrin-B2: ephrin ligand; monovalent interaction with EphB2, literature KD (protein, UniProt P52799 28-333, looked up)
Ephrin-B2: IVLEPIYWNSSNSKFLPGQGLVLYPQIGDKLDIICPKVDSKTVGQYEYYKVYMVDKDQADRCTIKKENTPLLNCAKPDQDIKFTIKFQEFSPNLWGLEFQKNKDYYIISTSNGSLEGLDNQEGGVCQTRAMKILMKVGQDASSAGSTRNKDPTRRPELEAGTNGRSSTTSPFVKPNPGSSTDGNSAGHSGNNILGSEVALFAGIASGCIIFIVIIITLVVLLLKYRRRHRKHSPQHTTTLSLSTLATPKRSGNNNGSEPSDIIIPLRTADSVFCPHYEKVSGDYGHPVYIVQEMPPQSPANIYYKV
Kd (EphB2): 16 nM

B2: ephrin-A5: ephrin ligand; monovalent interaction with EphA3, literature KD (protein, UniProt P52803 21-203, looked up)
Ephrin-A5: QDPGSKAVADRYAVYWNSSNPRFQRGDYHIDVCINDYLDVFCPHYEDSVPEDKTERYVLYMVNFDGYSACDHTSKGFKRWECNRPHSPNGPLKFSEKFQLFTPFSLGFEFRPGREYFYISSAIPDNGRRSCLKLKVFVRPTNSCMKTIGVHDRVFDVNDKVENSLEPADDTVHESAEPSRGEN
Kd (EphA3): 10 to 12 nM

Reference: patent publication US7999069B2, “EphB receptor-binding peptides” (Sanford-Burnham Medical Research Institute, priority 2005, dated 2011)
